# Source: patent US5955579, “Islet-specific homeoprotein and transcriptional regulator of insulin gene expression, HOXB13” (Strang Cancer Prevention Center)
# B1: FLAT element probe (dsDNA)
# DNA 1: GATCCCCTTGTTAATAATCTAATTACCCTAGG
# DNA 2: GATCCCTAGGGTAATTAGATTATTAACAAGGG
# Biological target: HoxB13 (CIX-1, Isl-3) (Rattus norvegicus)
# Assay: EMSA; described as high affinity; competed by 50 ng unlabeled FLAT; 50 mM KCl, 20 mM HEPES pH 7.8, 1 mM EDTA, 20% glycerol, room temperature
# Conditions: tags: GST fusion (pGEX-3X) expressed in E. coli BL21, GST removed by factor Xa; GATC 5' overhangs filled in
# Method: For gel shift assays, the labeled fragment was incubated 15 minutes at room temperature with buffer alone (50 mM KCI, 20 mM HEPES pH 7.8, 1 mM EDTA, 20% glycerol, 1 mM DTt and 1 mM PMSF), 1 μl bacterially expressed HoxB13 (see Example 3; "rCIX-1" in FIG. 4), 1 μl HoxB13 and 50 ng unlabeled FLAT DNA ("rCIX-1+50 ng FLAT" in FIG. 4), 5 μg Hela cell nuclear extract, 5 μg RIN cell nuclear extract, 5 μg RIN extract and 50 ng FLAT, 5 μg HeLa extract and 50 ng FLAT (respectively, as shown in FIG. 4). The samples were then run on a 5% acrylamide gel in 0.5× TBE.
# Sequence of HoxB13 (CIX-1, Isl-3) (Rattus norvegicus) (chain, as listed by the source): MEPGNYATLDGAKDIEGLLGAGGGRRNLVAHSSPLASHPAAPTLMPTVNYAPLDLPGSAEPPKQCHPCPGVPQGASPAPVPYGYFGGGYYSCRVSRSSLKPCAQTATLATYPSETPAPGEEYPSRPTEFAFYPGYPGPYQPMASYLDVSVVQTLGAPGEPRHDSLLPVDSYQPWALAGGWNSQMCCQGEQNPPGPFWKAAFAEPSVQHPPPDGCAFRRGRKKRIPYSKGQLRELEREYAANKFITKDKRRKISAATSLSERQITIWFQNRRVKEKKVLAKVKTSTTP
binder,measurement,value
B1,binding result,binds
